Results taken from article PMC11790492 (Nature Microbiology, 2024).
Positions count from the first letter of the chain named. Names and notes keep the numbering of the source.

How the values were obtained:
KorB [1] = biological target: T1, KorB (Escherichia coli, UniProt P07674); assay: ITC (weak, affinity could not be fitted); format: binding; parameters: C-terminally His-tagged KorB (WT)
KorB [2] = biological target: T1, KorB; assay: ITC; […] Å co-crystal structure (ligand modelled as CTP, sulfur position not assignable); format: binding; parameters: ITC: C-terminally His-tagged KorB; crystal: KorB∆N30∆CTD (lacks the 30 N-terminal amino acids, the linker and the CTD)
[3] = biological target: KorB (plasmid RK2, expressed in Escherichia coli) (UniProt P07674); assay: BLI; settings: BLI and C-trap buffers not given in the material, crystals 10 mM Tris-HCl, 150 mM NaCl pH 8.0 then 1.95 M ammonium sulfate, 0.1 M NaOAc pH 4.6, Eσ70 binding …
[4] = biological target: KorB (wild type), C-terminally His-tagged (plasmid RK2 (Escherichia coli)) (UniProt P07674)
Noc = biological target: T2, Noc (Bacillus subtilis, UniProt P37524); assay: CTP hydrolysis rate by phosphate release assay (EnzChek), […] CTP; format: biochemical
T2 sequence (P37524 1-283): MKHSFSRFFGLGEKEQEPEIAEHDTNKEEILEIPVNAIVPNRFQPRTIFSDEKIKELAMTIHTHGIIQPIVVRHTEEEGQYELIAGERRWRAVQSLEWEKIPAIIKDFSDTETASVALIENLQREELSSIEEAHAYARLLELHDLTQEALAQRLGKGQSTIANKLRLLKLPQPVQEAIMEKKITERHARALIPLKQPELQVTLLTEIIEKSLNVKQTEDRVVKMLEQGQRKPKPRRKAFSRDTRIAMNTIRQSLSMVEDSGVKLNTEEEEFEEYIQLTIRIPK

ParB = biological target: T3, ParB (Caulobacter vibrioides, UniProt P0CAV8); assay: as above; format: biochemical
T3 sequence (P0CAV8 1-304): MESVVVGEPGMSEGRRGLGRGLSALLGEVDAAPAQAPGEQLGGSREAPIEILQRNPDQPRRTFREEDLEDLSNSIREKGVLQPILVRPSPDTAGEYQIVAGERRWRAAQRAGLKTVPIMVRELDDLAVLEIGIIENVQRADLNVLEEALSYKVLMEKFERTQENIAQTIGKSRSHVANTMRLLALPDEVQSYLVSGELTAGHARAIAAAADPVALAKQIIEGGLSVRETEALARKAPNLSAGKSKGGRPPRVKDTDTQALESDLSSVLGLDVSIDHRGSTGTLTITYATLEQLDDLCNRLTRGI

KorB [5] = biological target: T1, KorB; assay: ITC; also OB DNA-stimulated CTPase assay; format: binding; parameters: C-terminally His-tagged KorB (WT)
[6] = tested on: AF647-KorA (Y84A) (plasmid RK2); assay: optical tweezers residence time; settings: unlabelled KorB, 2 mM CTP; BLI and C-trap buffers not given in the material; crystals 10 mM Tris-HCl, 150 mM NaCl pH 8.0 then 1.95 M ammonium sulfate, 0.1 M NaOAc pH 4.6; Eσ70 binding …
AF647-KorA (plasmid RK2) = assay: optical tweezers residence time; settings: BLI and C-trap buffers not given in the material, crystals 10 mM Tris-HCl, 150 mM NaCl pH 8.0 then 1.95 M ammonium sulfate, 0.1 M NaOAc pH 4.6, Eσ70 binding …
[7] = biological target: T4, KorB (wild type), C-terminally His-tagged (plasmid RK2 (Escherichia coli), UniProt P07674 1-358); assay: cell-based or functional assay
T4 sequence (looked up): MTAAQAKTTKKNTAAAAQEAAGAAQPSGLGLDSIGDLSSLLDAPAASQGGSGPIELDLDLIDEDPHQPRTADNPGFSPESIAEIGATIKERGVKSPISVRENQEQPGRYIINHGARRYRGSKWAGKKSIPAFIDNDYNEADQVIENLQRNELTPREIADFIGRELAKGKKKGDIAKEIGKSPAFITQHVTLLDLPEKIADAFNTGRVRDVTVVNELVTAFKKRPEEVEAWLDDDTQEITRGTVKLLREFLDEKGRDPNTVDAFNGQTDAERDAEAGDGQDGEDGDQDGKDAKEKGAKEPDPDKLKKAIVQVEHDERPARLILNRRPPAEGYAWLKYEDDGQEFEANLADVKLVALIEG

[8] = biological target: T5, KorB (wild type), C-terminally His-tagged (plasmid RK2 (Escherichia coli), UniProt P07674 1-358); assay: ITC
T5 chain: T4 sequence (looked up)

[9] = biological target: the molecule itself; assay: crystal structure; KorBΔN30ΔCTD–KorA complex with 14 bp OA DNA duplex, no CTPγS added; 2.7 Å; two KorA, two KorB subunits and one DNA duplex in the asymmetric unit
[10] = biological target: the molecule itself; assay: cross-linking; BMOE (1 mM) cysteine cross-linking of 8 µM KorB variant dimer ± 1 mM CTP or CTPγS ± 24 bp OB or scrambled DNA; 10 mM Tris–HCl pH 7.4, 100 mM NaCl, 1 mM MgCl2; room temperature; SDS–PAGE, band quantification
E. coli RNAP core;σ70 = E. coli RNAP core;σ70 (Escherichia coli;Escherichia coli, UniProt P0A7Z4;P0A8V2;P0A8T7;P0A800;P00579 1-329;1-1342;1-1407;2-91;1-613, |); assay: native MS; no KorA/KorB; BLI and C-trap buffers not given in the material; crystals 10 mM Tris-HCl, 150 mM NaCl pH 8.0 then 1.95 M ammonium sulfate, 0.1 M NaOAc pH 4.6; Eσ70 binding and; settings: protein: recombinant;recombinant; tags: His10-PPX;His-SUMO, cleaved; chain copies: 2;1;1;1;1; blunt
KorBΔN30ΔCTD;KorA = KorBΔN30ΔCTD;KorA (plasmid RK2;plasmid RK2, UniProt P07674;P03052 31-252;1-101, |); assay: X-ray crystallography; no CTPγS added; sulfates; BLI and C-trap buffers not given in the material; crystals 10 mM Tris-HCl, 150 mM NaCl pH 8.0 then 1.95 M ammonium sulfate, 0.1 M NaOAc pH 4.6; Eσ70 binding and; settings: protein: recombinant;recombinant; tags: His-tagged;C-terminal His6 (pET21b); chain copies: 2;2; blunt, self-complementary, 2 copies

With `Nc1ccn([C@@H]2O[C@H](COP(=O)(O)OP(=O)(O)O)[C@@H](O)[C@H]2O)c(=O)n1` [CDP] the “ITC (weak, affinity could not be fitted)” value (KorB [1]) was “KorB binding to CDP was qualitatively much weaker than to CTP, but the data precluded the estimation”.

Molecule `Nc1ccn([C@@H]2O[C@H](COP(=O)(O)OP(=O)(O)OP(O)(O)=S)[C@@H](O)[C@H]2O)c(=O)n1` [CTPɣS, cytidine-5′-(3-thiotriphosphate)] has a Kd (KorB [2]) of 0.4 ± 0.1 µM.

40-bp OB DNA was tested, and the Kd ([3]; 1 mM CTP) was 60 µM and the Kd ([3]; no CTP) was 0.14 µM.

In the case of “AF647–KorA: KorA with an extra C-terminal cysteine, C-terminally His-tagged, labelled with Alexa Fluor 647 (from UniProt P03052) (natural protein)”, the change of the residence time of AF647–KorA at OA on DNA (optical tweezers) with unlabelled KorB and CTP, against KorA with or without apo-KorB [4] is reported as 4.5 fold.

With `Nc1ccn([C@@H]2O[C@H](COP(=O)(O)OP(=O)(O)OP(=O)(O)O)[C@@H](O)[C@H]2O)c(=O)n1` [CTP] the “CTP hydrolysis rate by phosphate release assay (EnzChek), 1 mM CTP” value (Noc) was “CTP hydrolysis rates of KorB, C. crescentus ParB, and B. subtilis Noc were measured by continuous detection”, the “CTP hydrolysis rate by phosphate release assay (EnzChek), 1 mM CTP” value (ParB) was “CTP hydrolysis rates of KorB, C. crescentus ParB, and B. subtilis Noc were measured by continuous detection” and the Kd (KorB [5]) was 4.5 ± 0.5 µM.

Work on “C-trap DNA 8xOB + 1xOA (22,394 bp; also ligated as 44.8 kb tandem)” yielded a binding [6] of 3.72 s, a binding (AF647-KorA (plasmid RK2); unlabelled KorB (F249A), 2 mM CTP) of 3.07 s and a binding (AF647-KorA (plasmid RK2); unlabelled KorB, 2 mM CTP) of 10.1 s. The binding (AF647-KorA (plasmid RK2); unlabelled KorB, no CTP) was 2.61 s.

B1: KorA (wild type), C-terminally His-tagged (natural protein, plasmid RK2 (Escherichia coli))
chain: MKKRLTESQFQEAIQGLEVGQQTIEIARGVLVDGKPQATFATSLGLTRGAVSQAVHRVWAAFEDKNLPEGYARVTAVLPEHQAYIVRKWEADAKKKQETKR
notes: KorA of plasmid RK2, wild type; cysteine-less; expected monomer mass in nMS 12,825.6 Da; also called KorA (WT); KorA–(his)6; source: E. coli Rosetta (BL21 DE3) pLysS, pET21b, purified (HisTrap, Heparin, Superdex 75); not shown: His6, C-terminal, kept
In the case of B1, the “fold of repression of a promoter–xylE reporter (OB 1.5 kb upstream of the core promoter, OA over the −10 element) in E. coli with WT KorA and WT KorB co-expressed” value [7] is reported as ~38000 fold, the Kd [8] is reported as 4.2 µM and the binding result [9] is reported as “binds”.

B2: KorB (K351C), C-terminally His-tagged (natural protein)
chain: T4 sequence (looked up) with K351C
B2: binds [10].

B3: PkorA 100 bp (nMS) (dsDNA)
DNA 1: GTTACGCCAAGGACGAGTTTTAGCGGCTAAAGGTGTTGACGTGCGAGAAATGTTTAGCTAAACTTCTCTCATGTGCTGGCGGCTGTCACCGCTATGTTCA
DNA 2: TGAACATAGCGGTGACAGCCGCCAGCACATGAGAGAAGTTTAGCTAAACATTTCTCGCACGTCAACACCTTTAGCCGCTAAAACTCGTCCTTGGCGTAAC
B3: binds (E. coli RNAP core;σ70).

B4: 14 bp OA (dsDNA)
DNA 1: TGTTTAGCTAAACA
DNA 2: TGTTTAGCTAAACA
B4: binds (KorBΔN30ΔCTD;KorA).
